According to patent publication US20100330078A1 (Pfizer, published 2010):

Columns and labels:
[1] = biological target: T1, human integrin α5β1 on cells (endogenous, HUVEC; tumor or endothelial-expressed) (human, UniProt P08648 42-1049; P05556 21-798); assay: cell-based or functional assay
Human FcγRIIIa/158F = biological target: T2, Human FcγRIIIa/158F (human, UniProt P08637 17-208, limits assumed); assay: Biacore
T2 construct: also called Human FcγRIII/158F
Protocol: (§1) The ability of 22B5/DLE, which contains the IgG1 DLE triple mutations (as discussed previously in Example 2), to enhance binding to the FcγRs was evaluated in a Biacore binding experiment. The FcγR binding affinities of 22B5/DLE were compared with the binding affinity of wild type (wt) IgG1. […] The binding affinity comparison of 22B5/DLE and wild type IgG1 was also evaluated against the murine Fcγ receptors. The greatest enhancement in binding was to the mFcγRIV, followed by mFcγRI, and mFcγRIII (see FIG. 5).

Human FcγRIIa/131R = biological target: T3, Human FcγRIIa/131R (human, UniProt P12318 36-218, limits assumed); assay: Biacore
T3 construct: Polymorphic variant 131R; construct not described
T3 sequence (looked up): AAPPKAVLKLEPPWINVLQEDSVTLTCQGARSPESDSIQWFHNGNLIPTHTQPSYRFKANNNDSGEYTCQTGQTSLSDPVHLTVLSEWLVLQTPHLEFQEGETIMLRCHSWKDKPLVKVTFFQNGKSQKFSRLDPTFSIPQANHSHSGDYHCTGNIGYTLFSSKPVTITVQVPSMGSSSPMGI
Protocol: as §1

Murine FcγRIV = biological target: T4, Murine FcγRIV (murine, UniProt A0A0B4J1G0 21-203); assay: Biacore
T4 construct: Construct not described; also called mFcγRIV
T4 sequence: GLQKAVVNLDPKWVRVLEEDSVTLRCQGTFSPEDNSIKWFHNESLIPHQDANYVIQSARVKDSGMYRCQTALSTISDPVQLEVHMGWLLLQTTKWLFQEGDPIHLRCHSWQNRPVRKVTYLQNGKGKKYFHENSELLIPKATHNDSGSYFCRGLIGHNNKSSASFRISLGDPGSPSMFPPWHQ
Protocol: as §1

Murine FcγRI = biological target: T5, Murine FcγRI (murine, UniProt P26151 25-297, limits assumed); assay: Biacore
T5 construct: Construct not described; also called mFcγRI
T5 sequence (looked up): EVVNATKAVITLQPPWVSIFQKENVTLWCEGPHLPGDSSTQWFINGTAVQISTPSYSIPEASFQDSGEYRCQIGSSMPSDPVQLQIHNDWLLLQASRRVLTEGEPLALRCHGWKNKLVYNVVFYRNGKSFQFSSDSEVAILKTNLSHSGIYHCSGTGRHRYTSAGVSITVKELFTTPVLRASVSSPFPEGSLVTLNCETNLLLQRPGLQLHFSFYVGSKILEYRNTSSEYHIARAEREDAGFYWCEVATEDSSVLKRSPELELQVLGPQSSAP
Protocol: as §1

Human FcγRI = biological target: T6, Human FcγRI (human, UniProt P12314 16-288, limits assumed); assay: Biacore
T6 construct: Construct used in Biacore is not described
Protocol: as §1

Human FcγRIIa/131H = biological target: T7, Human FcγRIIa/131H (human, UniProt P12318 36-218, limits assumed); assay: Biacore
T7 construct: Polymorphic variant 131H; construct not described
T7 sequence (looked up): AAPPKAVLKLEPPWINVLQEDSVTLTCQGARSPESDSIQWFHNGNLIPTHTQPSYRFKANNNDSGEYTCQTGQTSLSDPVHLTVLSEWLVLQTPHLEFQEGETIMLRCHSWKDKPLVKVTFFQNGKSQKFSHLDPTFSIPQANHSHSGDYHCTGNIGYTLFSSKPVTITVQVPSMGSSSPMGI
Protocol: as §1

Murine FcγRIII = biological target: T8, Murine FcγRIII (murine, UniProt P08508 31-215, limits assumed); assay: Biacore
T8 construct: Construct not described; also called mFcγRIII
T8 sequence (looked up): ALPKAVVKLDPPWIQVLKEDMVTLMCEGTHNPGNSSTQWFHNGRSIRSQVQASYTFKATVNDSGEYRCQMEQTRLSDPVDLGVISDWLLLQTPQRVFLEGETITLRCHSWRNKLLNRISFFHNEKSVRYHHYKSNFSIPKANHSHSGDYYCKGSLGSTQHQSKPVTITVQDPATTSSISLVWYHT
Protocol: as §1

Human FcγRIIIa/158V = biological target: T9, Human FcγRIIIa/158V (human, UniProt P08637 17-208, limits assumed); assay: Biacore
T9 construct: also called Human FcγRIII/158V
Protocol: as §1

[2] = biological target: T1, human integrin α5β1 on cells …; assay: FACS on HUVEC (endogenous human α5β1), GeoMean against mAb concentration, fitted; experiment 030207
[3] = biological target: T1, human integrin α5β1 on cells …; assay: FACS on HUVEC (endogenous human α5β1), GeoMean against mAb concentration, fitted; experiment 031307
Protocol: The 22B5/DLE, 24C7/DLE, 1 D9/DLE, and 2D2/DLE antibodies were tested for their binding affinity to cell surface integrin α5 using a FACS assay, employing endogenous human integrin α5β1 expressing cells (HUVEC). Briefly, the cells were detached using trypsin-EDTA and washed with cold PBS. After being aliquoted into 96-well plates, the cells were blocked by serum and incubated with different concentrations of specific mAb for 1 hour at 4° C. Subsequently, the cells were washed and incubated with an anti-human κ secondary antibody conjugated with the R-PE fluorophore and analyzed using a FACSCalibur flow cytometer. 10,000 events were collected for each sample without applying any gating. For KD determination, the Geometric Mean of each sample histogram was calculated and plotted as a function of the mAb concentration. KD was calculated after fitting to a two-state equilibrium model.

[4] = biological target: T1, human integrin α5β1 on cells …; assay: cell-based or functional assay; remark: listed apart in the source

T1 sequence (P08648 42-1049, chain 1 of 2): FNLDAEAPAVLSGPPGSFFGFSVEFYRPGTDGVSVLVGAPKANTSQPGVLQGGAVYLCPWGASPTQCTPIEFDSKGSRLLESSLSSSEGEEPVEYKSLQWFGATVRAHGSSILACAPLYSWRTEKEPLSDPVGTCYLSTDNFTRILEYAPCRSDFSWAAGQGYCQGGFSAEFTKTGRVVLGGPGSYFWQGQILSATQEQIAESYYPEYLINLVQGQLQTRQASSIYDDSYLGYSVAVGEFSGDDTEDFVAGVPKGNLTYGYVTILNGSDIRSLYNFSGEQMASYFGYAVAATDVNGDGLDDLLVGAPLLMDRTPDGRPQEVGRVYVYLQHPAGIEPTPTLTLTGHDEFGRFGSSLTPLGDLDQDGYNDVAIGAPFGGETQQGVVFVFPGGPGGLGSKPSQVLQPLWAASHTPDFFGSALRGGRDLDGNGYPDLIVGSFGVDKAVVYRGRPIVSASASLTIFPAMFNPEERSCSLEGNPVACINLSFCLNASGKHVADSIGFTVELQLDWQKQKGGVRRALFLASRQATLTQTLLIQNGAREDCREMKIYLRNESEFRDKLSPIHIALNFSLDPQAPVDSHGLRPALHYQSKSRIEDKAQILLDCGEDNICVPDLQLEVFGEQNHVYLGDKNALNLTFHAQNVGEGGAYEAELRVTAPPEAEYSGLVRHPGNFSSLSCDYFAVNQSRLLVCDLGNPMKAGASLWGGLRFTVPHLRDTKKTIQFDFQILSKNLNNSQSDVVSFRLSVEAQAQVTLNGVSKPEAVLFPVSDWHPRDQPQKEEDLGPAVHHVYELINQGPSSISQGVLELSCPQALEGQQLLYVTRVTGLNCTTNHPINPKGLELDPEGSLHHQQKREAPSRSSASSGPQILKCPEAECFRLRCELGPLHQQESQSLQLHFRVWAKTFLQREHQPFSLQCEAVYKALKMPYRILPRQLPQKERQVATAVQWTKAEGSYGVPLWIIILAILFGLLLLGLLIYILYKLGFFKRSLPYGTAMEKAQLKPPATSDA
T1 sequence (P05556 21-798, chain 2 of 2): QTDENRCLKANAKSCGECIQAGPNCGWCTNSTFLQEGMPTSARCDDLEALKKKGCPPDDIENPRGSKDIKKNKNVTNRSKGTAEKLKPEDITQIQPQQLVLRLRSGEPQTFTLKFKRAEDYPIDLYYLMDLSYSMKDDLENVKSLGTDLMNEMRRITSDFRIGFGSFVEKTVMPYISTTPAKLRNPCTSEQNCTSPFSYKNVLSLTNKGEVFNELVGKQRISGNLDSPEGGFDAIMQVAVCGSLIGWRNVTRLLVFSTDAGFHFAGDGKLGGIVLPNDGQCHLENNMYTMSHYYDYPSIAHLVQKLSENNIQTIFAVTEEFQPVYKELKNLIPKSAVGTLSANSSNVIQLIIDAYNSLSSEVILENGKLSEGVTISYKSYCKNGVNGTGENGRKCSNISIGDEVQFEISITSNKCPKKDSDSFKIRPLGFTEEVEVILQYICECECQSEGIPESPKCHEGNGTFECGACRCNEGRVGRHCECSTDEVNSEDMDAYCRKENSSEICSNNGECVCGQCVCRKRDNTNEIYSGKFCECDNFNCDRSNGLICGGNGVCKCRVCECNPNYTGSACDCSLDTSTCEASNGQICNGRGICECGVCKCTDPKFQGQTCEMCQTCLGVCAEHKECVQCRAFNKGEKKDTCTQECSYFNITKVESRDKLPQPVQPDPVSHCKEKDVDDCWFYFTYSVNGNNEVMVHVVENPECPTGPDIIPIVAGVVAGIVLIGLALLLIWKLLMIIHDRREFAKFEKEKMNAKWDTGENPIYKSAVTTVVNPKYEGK
T2 sequence (P08637 17-208 limits assumed): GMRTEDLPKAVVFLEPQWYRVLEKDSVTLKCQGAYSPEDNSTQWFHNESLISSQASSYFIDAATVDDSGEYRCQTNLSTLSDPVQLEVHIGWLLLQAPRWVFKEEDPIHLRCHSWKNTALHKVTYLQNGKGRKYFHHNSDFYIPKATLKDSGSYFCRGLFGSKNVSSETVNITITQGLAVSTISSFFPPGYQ
T6 sequence (P12314 16-288 limits assumed): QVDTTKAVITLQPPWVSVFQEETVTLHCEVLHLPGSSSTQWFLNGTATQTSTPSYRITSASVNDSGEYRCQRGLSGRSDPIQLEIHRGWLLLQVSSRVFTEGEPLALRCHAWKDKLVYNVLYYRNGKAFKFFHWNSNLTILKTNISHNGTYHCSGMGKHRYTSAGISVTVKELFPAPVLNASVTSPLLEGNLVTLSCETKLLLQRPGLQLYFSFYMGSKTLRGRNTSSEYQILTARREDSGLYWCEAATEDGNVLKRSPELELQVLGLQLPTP
T9 sequence (P08637 17-208 F176V limits assumed): as the sequence (P08637 17-208 limits assumed) above, with F160V counted along it

B1: 22B5/DLE (antibody, human IgG1, kappa)
heavy: QLQLQESGPGLVKPSETLSLTCTVSGGSISSSSYWGWIRQPPGKGLEWIGSIYYSGRNYNNPSLKSRVTISVDTSKNQFSLKLSSVTAADTAVYYCARHYYGSGSSYYYYDLDVWGQGTTVTVSSASTKGPSVFPLAPSSKSTSGGTAALGCLVKDYFPEPVTVSWNSGALTSGVHTFPAVLQSSGLYSLSSVVTVPSSSLGTQTYICNVNHKPSNTKVDKKVEPKSCDKTHTCPPCPAPELLGGPDVFLFPPKPKDTLMISRTPEVTCVVVDVSHEDPEVKFNWYVDGVEVHNAKTKPREEQYNSTYRVVSVLTVLHQDWLNGKEYKCKVSNKALPLPEEKTISKAKGQPREPQVYTLPPSREEMTKNQVSLTCLVKGFYPSDIAVEWESNGQPENNYKTTPPVLDSDGSFFLYSKLTVDKSRWQQGNVFSCSVMHEALHNHYTQKSLSLSPGK
light: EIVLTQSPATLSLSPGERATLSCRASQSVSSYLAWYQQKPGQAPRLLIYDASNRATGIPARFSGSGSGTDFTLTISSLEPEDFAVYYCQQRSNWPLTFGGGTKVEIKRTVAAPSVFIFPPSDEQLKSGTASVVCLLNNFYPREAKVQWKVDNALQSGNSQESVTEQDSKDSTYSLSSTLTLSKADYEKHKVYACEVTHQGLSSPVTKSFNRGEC
notes: Human IgG1 with Fc mutations S247D, A338L, I340E; the VH already holds the germline back-mutations I30S and N33S; also called 22B5 IgG1 DLE; 22B5 G1 DLE
[1]
  ADCC EC50 (up to 80% target cell lysis), human PBMCs: 0.04 nM
Human FcγRIIIa/158F
  Kd: 27 nM
Human FcγRIIa/131R
  Kd: 650 nM
Murine FcγRIV
  Kd: 9.1 nM
Murine FcγRI
  Kd: 96 nM
Human FcγRI
  Kd: 5.8 nM
Human FcγRIIa/131H
  Kd: 1000 nM
Murine FcγRIII
  Kd: 1700 nM
Human FcγRIIIa/158V
  Kd: 9.4 nM
[2]
  Kd: 2.42 nM
[3]
  Kd: 1.99 nM
[4]
  IC50, inhibition of HUVEC adhesion to fibronectin (fluorescence 485/535 nM): 1.01 nM
